# Measurements reported in patent US20030027781.
# Tested on: RBC ghost membrane 105 kDa protein (unidentified; disulfide-linked dimer, ~210 kDa non-reduced) (Homo sapiens)
# Assay: filter
# Details: Scatchard on RBC ghosts, 1600 sites per cell; target assigned to 105 kDa protein by crosslinking
sequence,measurement,value
AACTCAGTGGTAGGTAACGGTT [c56t],Kd,4 nM
